Test results reported in US20250223358A1 (ANTENGENE BIOLOGICS, published 2025).
Positions count from the first letter of the chain named. Read-outs that look alike come from different tables or passages of the source. Values belong to the binder of their own block, whether it stands above or below them.

How the values were obtained:
[1] = target: T1, human CD3 (human, UniProt P07766 23-207; P04234 22-171; P09693 23-182); assay: FACS on Jurkat cells; as to FACS MFI: test concentration or dose not given here
T1 construct: whole, on cells; also called hCD3; CD3 on Jurkat cells
T1 sequence (P07766 23-207, chain 1 of 3): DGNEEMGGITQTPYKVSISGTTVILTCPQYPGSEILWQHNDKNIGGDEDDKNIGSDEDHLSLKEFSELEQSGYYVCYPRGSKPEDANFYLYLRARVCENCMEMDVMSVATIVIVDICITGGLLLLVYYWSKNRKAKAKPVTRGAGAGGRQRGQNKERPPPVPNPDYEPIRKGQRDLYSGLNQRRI
T1 sequence (P04234 22-171, chain 2 of 3): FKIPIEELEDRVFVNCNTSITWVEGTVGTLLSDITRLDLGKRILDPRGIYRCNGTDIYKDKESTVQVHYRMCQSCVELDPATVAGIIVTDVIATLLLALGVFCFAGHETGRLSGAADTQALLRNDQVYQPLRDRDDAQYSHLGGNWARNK
T1 sequence (P09693 23-182, chain 3 of 3): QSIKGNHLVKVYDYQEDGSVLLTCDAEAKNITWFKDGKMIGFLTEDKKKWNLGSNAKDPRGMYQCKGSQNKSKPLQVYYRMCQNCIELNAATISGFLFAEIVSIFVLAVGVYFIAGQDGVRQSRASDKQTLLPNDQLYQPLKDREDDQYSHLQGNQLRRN

[2] = target: T1, human CD3; assay: cell-based or functional assay
[3] = target: T1, human CD3; assay: cell-based or functional assay; remark: listed apart in the source
[4] = target: T1, human CD3; assay: cell-based or functional assay; remark: listed apart in the source
[5] = target: T1, human CD3; assay: FACS on Jurkat cells; remark: listed apart in the source; as to FACS MFI: test concentration or dose not given here
[6] = target: T1, human CD3; assay: FACS on Jurkat cells; remark: listed apart in the source; as to FACS MFI: test concentration or dose not given here
[7] = target: T1, human CD3; assay: FACS on HEK293T-hCD3mix cells; also: test concentration or dose not given here
[8] = target: T1, human CD3; assay: FACS on Jurkat cells; remark: listed apart in the source; as to FACS MFI: test concentration or dose not given here
[9] = target: T2, cynomolgus CD3 (cynomolgus (Macaca fascicularis), UniProt Q95LI5 22-198; Q95LI8 22-171; Q95LI7 23-181); assay: FACS on 293F-cynoCD3mix cells; also: test concentration or dose not given here
T2 construct: whole, on cells; composition of the 'mix' not defined; also called cynoCD3
T2 sequence (Q95LI5 22-198, chain 1 of 3): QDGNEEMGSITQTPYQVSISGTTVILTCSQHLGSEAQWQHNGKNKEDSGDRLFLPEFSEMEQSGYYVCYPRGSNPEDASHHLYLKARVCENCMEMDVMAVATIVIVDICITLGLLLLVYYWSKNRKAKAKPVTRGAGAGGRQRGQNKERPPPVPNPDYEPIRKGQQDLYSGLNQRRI
T2 sequence (Q95LI8 22-171, chain 2 of 3): as the sequence (P04234 22-171, chain 2 of 3) above, with I5V, N15K, I20V, S32T, D33N, I34N, T64A, S74N, V83L, H141R counted along it
T2 sequence (Q95LI7 23-181, chain 3 of 3): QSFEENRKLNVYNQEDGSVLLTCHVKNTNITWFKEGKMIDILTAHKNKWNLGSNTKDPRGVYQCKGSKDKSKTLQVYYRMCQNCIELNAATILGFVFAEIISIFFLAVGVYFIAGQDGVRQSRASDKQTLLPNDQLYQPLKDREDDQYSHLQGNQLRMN

EC50 [1]: 18 nM | Top FACS signal [1]: 2720 | EC50 (activation of Jurkat-NFAT-Luc cells) [2]: 11.3 nM | Top FACS signal (activation of Jurkat-NFAT-Luc cells) [2]: 457
B1: ch8-B12-F9-B11 (antibody, V domains shown)
VH: EVQLVESGGGIVKPGGSRKLSCAASGFTFSDYGMHWVRQAPEKGLEWIAYISSASGKIYYADTVKGRFTISRDNAKNILFLQMTSLRSEDTAMYYCARVLRWSVNYVMDYWGQGTSVTVSS
VL: DIVMTQSPSSLAVSAGEKVTMNCESSQSVLYSSNQKNYLAWYQQKPGQSPKLLIYWASTRESGVPDRFTGTGSGTDFTLTISSVQAEDLAVYYCHQYLSSWTFGGGTKLEIK

EC50_Fold change (Jurkat-NFAT-luciferase activation, normalized to ch40-C12-C10-E9) [3]: 1 fold | Top signal_Fold change (Jurkat-NFAT-luciferase activation, normalized to ch40-C12-C10-E9) [3]: 1 fold | EC50_Fold change (Jurkat-NFAT-luciferase activation, normalized to ch40-C12-C10-E9) [4]: 1 fold | Top FACS signal_Fold change (Jurkat-NFAT-luciferase activation, normalized to ch40-C12-C10-E9) [4]: 1 fold | EC50 [1]: 1.01 nM | Top FACS signal [1]: 2540 | EC50 [5]: 0.45 nM | Top FACS signal [5]: 1620 | EC50 [6]: 0.41 nM | Top FACS signal [6]: 2940 | EC50 (activation of Jurkat-NFAT-Luc cells) [2]: 24.2 nM | Top FACS signal (activation of Jurkat-NFAT-Luc cells) [2]: 810
B2: ch40-C12-C10-E9 (antibody, V domains shown)
VH: EVQLQLSGPELVKPGASVKMSCKASGYTFSSYVIHWVKQKPGQGLEWIGYINPYNDVIKYNEKFKGKATLTSDKSSSTAYMELSSLTSEDSAVYYCARDSYYSYDGFAYWGQGTLVTVSA
VL: QIVLTQSPAIMSASPGEKVTMTCSASSSVSYMHWYQQKSGTSPKRWIYDTSKLASGVPARFSGSGSGTSYSLTISSMEAEDAATYYCQQWSSNPPTFGGGTKVEIK

FACS MFI [7]: 21800 MFI
B3: 3-C6-C11-F12 (antibody, V domains shown)
VH: EVHLVESGGGLVQPGGSRKLSCAGSGFTFSTYGMHWVRQAPEKGLEWVAYISNGGSTIYYADSVKGRFTISRDNPNDTLFLHMTSLGSEDTAMYYCARPTWGGFAYWGQGTLVTVSA
VL: DIVLTQSPLSLPVSLGDQASISCRSSQSIAHSNGDTYLEWYLQNPGQSPKLLIYKVSNRISGVPDRFSGSGSGTDFTLKISRVEAEDLGVYYCFQGSHVPYTFGGGTKLEIK
notes: mouse monoclonal (hybridoma) antibody

FACS MFI [8]: 126 MFI | FACS MFI [9]: 400 MFI
B4: 124E3D6 (antibody, V domains shown)
VH: QVQLQQPGTELVKPGASVKLSCKASGYTFTSYWMHWVKQRPGQGLEWIGNINPSNGDTNYNEKFKSKATLTVDKSSSTAYMQLSSLTSEDSAVYYCARDRSSQYYFDYWGQGTTLTVSS
VL: DIVMSQSPSSLAVSAGEKVTMSCKSSQSLLNSRTRKNYLAWYQQKPGQSPKLLIYWASTRESGVPDRFTGSGSGTDFTLTISSVQAEDLAVYYCKQSYNLRTFGGGTKLEIK
notes: as for B3

FACS MFI [8]: 1860 MFI | FACS MFI [9]: 2230 MFI
B5: 147C6F3 (antibody, V domains shown)
VH: B4 VH with T30D, I51L, D57E, T58I, S66H, A97S
VL: B4 VL with M21L, P46S, I54M, S82T, S83N, N99I
notes: as for B3

FACS MFI [8]: 681 MFI | FACS MFI [9]: 1780 MFI
B6: 133B4C7 (antibody, V domains shown)
VH: B4 VH with Y60F
VL: B4 VL with K24N, N99T
notes: as for B3

FACS MFI [8]: 930 MFI | FACS MFI [9]: 1920 MFI
B7: 127E2D3 (antibody, V domains shown)
VH: B4 VH with Q43E, N52Y, S54G, N55S, G56S, D57S, T58I
VL: B4 VL with K95T
notes: as for B3

FACS MFI [8]: 1620 MFI | FACS MFI [9]: 2220 MFI
B8: 126A11A4 (antibody, V domains shown)
VH: B4 VH with G42E, S75A, S77N, A97G
VL: B4 VL with Y93F, Y98F, N99I
notes: as for B3

FACS MFI [8]: 872 MFI | FACS MFI [9]: 2040 MFI
B9: 140D2B10 (antibody, V domains shown)
VH: B4 VH with D57E, T58S, S91Y
VL: B4 VL with N99T
notes: as for B3

FACS MFI [8]: 2450 MFI | FACS MFI [9]: 2530 MFI
B10: 147E11E2 (antibody, V domains shown)
VH: B4 VH with A16T, D57A
VL: B4 VL with T34S, K95T, N99T
notes: as for B3
